According to the nanobody polyreactivity screen of Harvey et al. (2022):

Assay: yeast display, Sf9 membrane polyspecificity reagent, FACS + sequencing; frameworks hold sequencing errors
Outline: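 Using colony PCR, genes from sorted yeast display clones were amplified, then sequenced on MiSeq at 2 × 250 and filtered by CDR length. The clones had been stained with 10% biotinylated, detergent-solubilized Sf9 membrane reagent for 1 hour at 4 °C and sorted by FACS into low and high (top ~1%) gates on anti-HA and streptavidin fluorescence. Polyreactivity labels come from the gate of origin.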

Sequence	polyreactivity (PSR sort gate)
QVQLVESGGGLVQAGGSLRLSCAASGITFGGNAMGWYRQATGKERELVAGINRSGVSTYYADSVKGRFTISRDNAKNTVYFQMNSLKPEDTAVYYCATGYFSWIYGYYYWGQGTQVTVSS	high polyreactivity
QVQLVESGGGLVQAGGSLRLSCAASGRIYGGYAMGWYRQAPGKERELVAAISSRGGSTYYADSVKGRFTISRDNAKNTVYFQMNSLKPEDTAVYYFADDGRVKGWGQGTQVTVSS	high polyreactivity
QVQHVESGGGLVQAGGSLRLRCAASGSTFQYNPMGWYRQAPGKERELVASITRGGNTNYADSVKGRFTISRDNAKNTVYLQMNSLKPEDTAVYYCAARSTYRVSHVDYWGQGTQVTVSS	low polyreactivity
QVQLVESGGGLVQAGGSLSLSCAASGRIFRRYAMGWYRQAPWKERELVAAITWSGGSTYADSVKGRFTISRDNAKNTVYLQMNSLKPEDTAVYYCAARYVTTKGSFVVGYGYWGQGTQVTVSS	high polyreactivity
QVQLVESGGGIVQAGGSLRLSCAASGSTFDVNAMGWYRQAPGKERELVAAISWNSGSTYYADSVKGRFTISRDNAKNTVYLQMNSLKPEDTAVYYCAATYGTGRRSKYGYWGQGTQVTVSS	high polyreactivity
QVQLVESGGGLVQAGGSLRLSCAASGSIFGSNAMGWYRQAPGKERELVAVITNGGRTYYADSVKGRFTISRDNAKNSVYLQMNSLNPEDTAVYYCAASRVYGWYGSYSTYGSWGQGTQVTVSS	high polyreactivity
QVQLVESGGGLVQAGGRLRLSCAASGRTFPGYDMGWYRQAPGKERELVAAITRSGGSTYYADSVKGRFTISRDNAKNTVYLQMNSLKPEDTAVYYCATERHFYYSTFYYWGQGTQVTVSS	high polyreactivity
QVQLVESGGGLVQAGGRLRLSCAASGRTLYRYVMVWYRQAPWKERELVAAISATAGSTYYADSVKGRFTISRDNAKNTVYLQMNSLTPEDTAVYYCAAEGYTLWYWLEFEYWGQGTQVTVSS	high polyreactivity
QVQLVESGGGLVQAGGSLRLSCAASGIIFRTYDMGWYRQAPGKERELVANISWSAGSTYYADSVKGRFTISRDNAKNTVYLQMNSLKPEDTAVYFCNAVRLYPSSYDYWGQGTQVTVSS	low polyreactivity
QVQLVESGGGLVQAGGSLRLSCAASGRIFTSYAMGWYRQAPGKERELVAAITASGGRTYYADSVKGRFTISRDNAKNTVYLQMNCLKPEDTAVYYCAKLLSFQGDYWGQGTQVTVSS	high polyreactivity
QLQHVESGGGLVQAGGSLRLSCAASGSTFYRNAMGWYRQAPGKDRELVAAISRGSRTYYADSVKGRFTISRDNAKNTVYLQMNSLKPEDTAVYYCAALYGSRSTYHMDDYWGQGTQVTVSS	high polyreactivity
QVQHVESGGGLVQAGGSLRLSCAASGRTFTHYAMGWYRQAPGKERELVAVITTGGSTYYADSVKGRFTISRDNAKNTVYLQMNSLKPEDTAVYYCAATALSGLGYWGQGTQVTVSS	low polyreactivity
QVQLVESGGGLVQAGGSLRLSCAASGSIFFGNVMGWYRQAPGKERELVAVISWSGGTTYYADSVKGRFTISRDNAKNTVYLQMNSLKAEYTAVYYCNARYLRRGDYWGQGTQVTVSS	low polyreactivity
QVQLVESGGGLVQAGGSLRLSCAASGSIFSYYPMGWYRPAPGKERELVAAISWSGGSTYYADSVKGRFTISRDNAKNTVYLQMNSLKPEDTAVYYCAAQSWSGDSSFWRYDYWGQGTQVTVSS	low polyreactivity
HVQLVESGGGLVQAGGSLRLSFAASASIYQFYPMGWYRPAPGKERELVAGINNSGGSTYYADSVKGRFTISRDNAKNTVYLQMNSLKPEDTAVYYCMARSRYDTGRQRGYDYWGQGTQVTVSS	low polyreactivity
QVQLVESGGGLFQAGGSLRLSCAASGRIFVFYTMGWYRQAPGKERELVASINSGGSTYYADSVKGRFTISRDNAKNTVYLQMNSLKPEDTAVYYCAASRTRRGVRQFDYWGQGTQVTVSS	high polyreactivity
QVQLVESGGGLVQAGGSLRLSCAASGSIFRRYAMGWYRQAPGKERELVAAISIGGGSTYYADSVKGRFTISRDNAKITVYLQMNSLKPEDTAVYYCNAYWKDDFEDGPGRRGMDYWGQGTQVTVSS	low polyreactivity
EVQVVESGGGLVQAGGSLRLSCAASGRIFLRNAMGWYRQAPGKEWEFVATITSGGSTFYADSVKGRFTISRDNAKNTFYLQMNRLKPEDTAVYYCAAPSYYTPFHTPNYCWGQVTQVTVSS	low polyreactivity
QVQLVESGGGLVQAGGRLRLSCAASGSTLDTYAMGWYRQAPGKERELVAGITWSGGSTYYADSVKGRFTISRDNAKNTVYLQMNSLKPEDTAVYYCAAYSPYGPRYDYWGQGTQVTVSS	low polyreactivity
QVQLVESGGGLVQAGGSLRLSCAASGFTFNTNAMGWYRQAPGKERELVAAITSSGGSTYYADSVKGRFTISRDNAKNTVYLQMNSLKPEDTAVYYCNADVTLRLWAYYYYRYNYWGQGTQVTVSS	low polyreactivity
QVQLVESGGGLVQAGGSLRLSCAPSGRIFSWNAMGWYRQAPGKERELVAAISVRGGSTYADSVKGRFTISRDNAKNTVYLQMNSLKPEDTAVYYCAKTYYPYRLGEGQYEYDYWGQGTQVTVSS	low polyreactivity
QVQLVESGGGLVQAGGSLRISCAASGRTFGANAMGWYRQAPGKERELVAGITSSGGSTSYADSVKGRFTISRDNAKNTVYLQMNSLKPEDTAVYYCAKDVYQHIFDVILGGYDSWGQGTQVTVSS	low polyreactivity

Sequence	polyreactivity (PSR sort gate)
QVQLVESGGGLVQAGGSLRLSCAASGSIFSYYAMGWYRQAPGKERELFAVINSGGRTNYADSVKGRFTISRDNAKNTVYLQMNSLKPEDTAVYYCAAQGYFVDRAGRYYRGDYWGQGTQVTVSS	high polyreactivity
QFQLVESGGGLLQAGGSLRLSCAASGRIFVPYVMGWYRQAPGKERELVASISDTDTSTYYADSVKGRFTISRDIAKNIVYLQMNSLKPEDTAVYYWNVDYWGQGTQVTVSS	low polyreactivity
QVQLVESGGGLVQAGGSLRLSCAASGSTFIRNAMGWYRQAPGKERELVAAISSSGGRTYYADSVKGRFTISRDNAKNTVYLQMNSLKPEDTAVYYCAARNARYVHTMEYWGQGTQVTVSS	high polyreactivity
QVQLVESGGGLVQAGGSLRLSCAASGRTFRRNVMGWYRQAPGKERELVAAISSGANTNYADSVKGRFTISRDNAKNTVYLQMNSLKPEDTAVYYCNARWQEPLKYDYWGQGTQVTVSS	low polyreactivity
QVQLVESGGGLVQAGGSLRLSCASSGFTFGWYDMGWYRQAPGKERELVASISWSGSSTYYADSVKGRFTISRDNAKNTVYLQLNSLKPEDTAVYYCNAVSVDYVNWYWYDYWGQGTQVTVSS	high polyreactivity
QVQLVESGGGLVQAGGSLRLSCAASGFTFWGYTMGWYRQAPGKERELVAAITSTGSTYYAYSVKGRFTISRDNAKNTVYLQMNSLKPEDTSVYYCATARSYLTYSYHYDYWGQGTQVTVSS	low polyreactivity
QVQLVESGGGLVQAGGSLRLSCAASGAIFRYYAMGWYRPAPGKEREFVAAIRGSGGSPYYADSVKGRFTISRDNAKNTVYIQMISLKPEDTAVYYCAARKYSDRQVWYCYWGHGTQVTVSS	high polyreactivity
QVQLVESGGGLGQAGGSLRLSCAASGSTFYRNAMGWYRPAPGKERELVAAISGSDGSTYYADSVKGRFTISRDNAKNTVYLQMNSLKPEDTAVYYCVVAYARKYYYWGQGTQVTVSS	high polyreactivity
QVQLVESGGGLVQAGGSLSLSCAASGPTFGEYVMGWYRQAPGKERELVASISRRGGSTYYADSVKGRFTISRDNAKNTVYLQMNSLKPEDTAVYYCAKYRTQWSKNLYPYGFDYWGQGTQVTVSS	low polyreactivity
QVQLVESGGGLVQAGGSLRLSCAASGSTFDFYAMGWYRQAPGKERELVARISSGGGRTYYADSVKGRFTISRDNAKNTVYLQLNSLKPEDTAVYYCATDYPWIFGHFLMDYWGQGTQVTVSS	low polyreactivity
QVQLVESGGGLVQAGGILRLSCAASGRTFNGNAMGWYRQAPGKERELVAAISGGSTSYADSVKGRFTISRDNAKNTVYLQMNSLKPEDTAVYYCATDPSEEYDYWGQGNQVTVSS	low polyreactivity
QFQLVESGGGLGQAGGSNRLSCAASGRIFNIYAMGCYRQSPGKERELVADITSGGTKYADSVKGRFTISRDNAKNTVYLQMNSLKPEDTAVDYCAAEYLYYGGVDYWGQGTQVTVSS	high polyreactivity
QVQHVESGGGLVQAGGRLRLSCPATGSTFTWYALASYRQAPGKERELVAAISRGGSTNYADSVKGRFTISRDNAKNSVYLQMNSLIPEDTAVYYCAAESYWRDVYWGQGTQVTVSS	low polyreactivity
QVQLVESGGGLVQAGGSLRLSCAASGITLYWYAMGWYRPAPGKERELVAAISRRGGTTYYADSVKGRFTISRDNAKNTVYLQMNSLKPEDTAVYYCAKAPDTQTSWSRQEGNYWGQGTQVTVSS	low polyreactivity
QVQLVESGGGLVQAGGSLRLSCAASGRIFRRYAMGWYRQAPGKERELVADITYGVDSTYYADSVKGRFTISRDNAKNTVYLQMNSLKPEDTAVYYCNADRTEDLLYRFVGVTYGYWGQGTQVSVSS	high polyreactivity
QVQLVESGGCLVQAGGSLRLSCAASGRIFVPNAMGWYRQAPGKERELVAAINWGGGSTYYADSVKGRFTISRDNAKNTVYLQMNSLKPEDTAVYYCAADHPYTMGVLPNQQFDYWGQGTQVTVSS	low polyreactivity
QVQIVESGGCLVQAGGSLRLSCAASGRTFGRNAMGWYRQAPGKERELVAGISIGGGTTYYADSVKGRFTISRDNAKNTVYLQMNSLKPEDTAVYYCAARSWSYLHRYGYWGQGTQVTVSS	high polyreactivity
QVQLVESGGGLVQAGGSLRLSCPASGSIFDRYAMGWYRQAPGKERELVAAISWSDSRTYYADSVKGRFTISRDNAKNTVYFQMNSLKPEDTAVYYCAADGSTWGDYRTYGYWGQGTQVTVSS	low polyreactivity
QVQLVESGGGLVQAGGSLRLSCAASGFTFQFYDMGWYRQAPGTEREFVATITSSGGSTYYADSVKGRFTISRDNAKNTVYLQMNSLKPEDPAVYYCANDKLFFYRVGSDYWGQGTQVTVSS	low polyreactivity
QVQLVESGGGLVQAGGSLRLSCAATGLTLKENVMGWYRQAPGKERELVAAISTGASTYYADSVKGRFTISRDNAKNTVYLQMNSLKPEDTAVYYCAKRVTRCYGYWGQGTQVTVSS	high polyreactivity
QVQLVESGGGLGQAGGSLRLSCAASGRTLGIYAMGWYRQAPGKERELVAAITWSGGSTYYADSVKGRFTISRDNAKNTVYLQMNSLKPEDTAVYYCNVRSGGKRRNSGRVDYWGQGTQVTVSS	low polyreactivity
